# From paper PMC10540216, “Activity Guided Azide-methyllysine Photo-trapping for Substrate Profiling of Lysine Demethylases” (Journal of the American Chemical Society, 2023)
# B1: TR150_HUMAN (protein, UniProt Q9Y2W1 2-955, looked up)
# Thyroid hormone …: SKTNKSKSGSRSSRSRSASRSRSRSFSKSRSRSRSLSRSRKRRLSSRSRSRSYSPAHNRERNHPRVYQNRDFRGHNRGYRRPYYFRGRNRGFYPWGQYNRGGYGNYRSNWQNYRQAYSPRRGRSRSRSPKRRSPSPRSRSHSRNSDKSSSDRSRRSSSSRSSSNHSRVESSKRKSAKEKKSSSKDSRPSQAAGDNQGDEAKEQTFSGGTSQDTKASESSKPWPDATYGTGSASRASAVSELSPRERSPALKSPLQSVVVRRRSPRPSPVPKPSPPLSSTSQMGSTLPSGAGYQSGTHQGQFDHGSGSLSPSKKSPVGKSPPSTGSTYGSSQKEESAASGGAAYTKRYLEEQKTENGKDKEQKQTNTDKEKIKEKGSFSDTGLGDGKMKSDSFAPKTDSEKPFRGSQSPKRYKLRDDFEKKMADFHKEEMDDQDKDKAKGRKESEFDDEPKFMSKVIGANKNQEEEKSGKWEGLVYAPPGKEKQRKTEELEEESFPERSKKEDRGKRSEGGHRGFVPEKNFRVTAYKAVQEKSSSPPPRKTSESRDKLGAKGDFPTGKSSFSITREAQVNVRMDSFDEDLARPSGLLAQERKLCRDLVHSNKKEQEFRSIFQHIQSAQSQRSPSELFAQHIVTIVHHVKEHHFGSSGMTLHERFTKYLKRGTEQEAAKNKKSPEIHRRIDISPSTFRKHGLAHDEMKSPREPGYKAEGKYKDDPVDLRLDIERRKKHKERDLKRGKSRESVDSRDSSHSRERSAEKTEKTHKGSKKQKKHRRARDRSRSSSSSSQSSHSYKAEEYTEETEEREESTTGFDKSRLGTKDFVGPSERGGGRARGTFQFRARGRGWGRGNYSGNNNNNSNNDFQKRNREEEWDPEYTPKSKKYYLHDDREGEGSDKWVSRGRGRGAFPRGRGRFMFRKSSTSPKWAHDKFSGEEGEIEDDESGTENREEKDNIQPTTE
# B2: SF3B1_HUMAN (protein, UniProt O75533 1-1304, looked up)
# Splicing factor 3B subunit 1: MAKIAKTHEDIEAQIREIQGKKAALDEAQGVGLDSTGYYDQEIYGGSDSRFAGYVTSIAATELEDDDDDYSSSTSLLGQKKPGYHAPVALLNDIPQSTEQYDPFAEHRPPKIADREDEYKKHRRTMIISPERLDPFADGGKTPDPKMNARTYMDVMREQHLTKEEREIRQQLAEKAKAGELKVVNGAAASQPPSKRKRRWDQTADQTPGATPKKLSSWDQAETPGHTPSLRWDETPGRAKGSETPGATPGSKIWDPTPSHTPAGAATPGRGDTPGHATPGHGGATSSARKNRWDETPKTERDTPGHGSGWAETPRTDRGGDSIGETPTPGASKRKSRWDETPASQMGGSTPVLTPGKTPIGTPAMNMATPTPGHIMSMTPEQLQAWRWEREIDERNRPLSDEELDAMFPEGYKVLPPPAGYVPIRTPARKLTATPTPLGGMTGFHMQTEDRTMKSVNDQPSGNLPFLKPDDIQYFDKLLVDVDESTLSPEEQKERKIMKLLLKIKNGTPPMRKAALRQITDKAREFGAGPLFNQILPLLMSPTLEDQERHLLVKVIDRILYKLDDLVRPYVHKILVVIEPLLIDEDYYARVEGREIISNLAKAAGLATMISTMRPDIDNMDEYVRNTTARAFAVVASALGIPSLLPFLKAVCKSKKSWQARHTGIKIVQQIAILMGCAILPHLRSLVEIIEHGLVDEQQKVRTISALAIAALAEAATPYGIESFDSVLKPLWKGIRQHRGKGLAAFLKAIGYLIPLMDAEYANYYTREVMLILIREFQSPDEEMKKIVLKVVKQCCGTDGVEANYIKTEILPPFFKHFWQHRMALDRRNYRQLVDTTVELANKVGAAEIISRIVDDLKDEAEQYRKMVMETIEKIMGNLGAADIDHKLEEQLIDGILYAFQEQTTEDSVMLNGFGTVVNALGKRVKPYLPQICGTVLWRLNNKSAKVRQQAADLISRTAVVMKTCQEEKLMGHLGVVLYEYLGEEYPEVLGSILGALKAIVNVIGMHKMTPPIKDLLPRLTPILKNRHEKVQENCIDLVGRIADRGAEYVSAREWMRICFELLELLKAHKKAIRRATVNTFGYIAKAIGPHDVLATLLNNLKVQERQNRVCTTVAIAIVAETCSPFTVLPALMNEYRVPELNVQNGVLKSLSFLFEYIGEMGKDYIYAVTPLLEDALMDRDLVHRQTASAVVQHMSLGVYGFGCEDSLNHLLNYVWPNVFETSPHVIQAVMGALEGLRVAIGPCRMLQYCLQGLFHPARKVRDVYWKIYNSIYIGSQDALIAHYPRIYNDDKNTYIRYELDYIL
# B3: SF3B3_HUMAN (protein, UniProt Q15393 1-1217, looked up)
# Splicing factor 3B subunit 3: MFLYNLTLQRATGISFAIHGNFSGTKQQEIVVSRGKILELLRPDPNTGKVHTLLTVEVFGVIRSLMAFRLTGGTKDYIVVGSDSGRIVILEYQPSKNMFEKIHQETFGKSGCRRIVPGQFLAVDPKGRAVMISAIEKQKLVYILNRDAAARLTISSPLEAHKANTLVYHVVGVDVGFENPMFACLEMDYEEADNDPTGEAAANTQQTLTFYELDLGLNHVVRKYSEPLEEHGNFLITVPGGSDGPSGVLICSENYITYKNFGDQPDIRCPIPRRRNDLDDPERGMIFVCSATHKTKSMFFFLAQTEQGDIFKITLETDEDMVTEIRLKYFDTVPVAAAMCVLKTGFLFVASEFGNHYLYQIAHLGDDDEEPEFSSAMPLEEGDTFFFQPRPLKNLVLVDELDSLSPILFCQIADLANEDTPQLYVACGRGPRSSLRVLRHGLEVSEMAVSELPGNPNAVWTVRRHIEDEFDAYIIVSFVNATLVLSIGETVEEVTDSGFLGTTPTLSCSLLGDDALVQVYPDGIRHIRADKRVNEWKTPGKKTIVKCAVNQRQVVIALTGGELVYFEMDPSGQLNEYTERKEMSADVVCMSLANVPPGEQRSRFLAVGLVDNTVRIISLDPSDCLQPLSMQALPAQPESLCIVEMGGTEKQDELGERGSIGFLYLNIGLQNGVLLRTVLDPVTGDLSDTRTRYLGSRPVKLFRVRMQGQEAVLAMSSRSWLSYSYQSRFHLTPLSYETLEFASGFASEQCPEGIVAISTNTLRILALEKLGAVFNQVAFPLQYTPRKFVIHPESNNLIIIETDHNAYTEATKAQRKQQMAEEMVEAAGEDERELAAEMAAAFLNENLPESIFGAPKAGNGQWASVIRVMNPIQGNTLDLVQLEQNEAAFSVAVCRFSNTGEDWYVLVGVAKDLILNPRSVAGGFVYTYKLVNNGEKLEFLHKTPVEEVPAAIAPFQGRVLIGVGKLLRVYDLGKKKLLRKCENKHIANYISGIQTIGHRVIVSDVQESFIWVRYKRNENQLIIFADDTYPRWVTTASLLDYDTVAGADKFGNICVVRLPPNTNDEVDEDPTGNKALWDRGLLNGASQKAEVIMNYHVGETVLSLQKTTLIPGGSESLVYTTLSGGIGILVPFTSHEDHDFFQHVEMHLRSEHPPLCGRDHLSFRSYYFPVKNVIDGDLCEQFNSMEPNKQKNVSEELDRTPPEVSKKLEDIRTRYAF
# B4: CAND1_HUMAN (protein, UniProt Q86VP6 2-1230, looked up)
# Cullin-associated …: ASASYHISNLLEKMTSSDKDFRFMATNDLMTELQKDSIKLDDDSERKVVKMILKLLEDKNGEVQNLAVKCLGPLVSKVKEYQVETIVDTLCTNMLSDKEQLRDISSIGLKTVIGELPPASSGSALAANVCKKITGRLTSAIAKQEDVSVQLEALDIMADMLSRQGGLLVNFHPSILTCLLPQLTSPRLAVRKRTIIALGHLVMSCGNIVFVDLIEHLLSELSKNDSMSTTRTYIQCIAAISRQAGHRIGEYLEKIIPLVVKFCNVDDDELREYCIQAFESFVRRCPKEVYPHVSTIINICLKYLTYDPNYNYDDEDEDENAMDADGGDDDDQGSDDEYSDDDDMSWKVRRAAAKCLDAVVSTRHEMLPEFYKTVSPALISRFKEREENVKADVFHAYLSLLKQTRPVQSWLCDPDAMEQGETPLTMLQSQVPNIVKALHKQMKEKSVKTRQCCFNMLTELVNVLPGALTQHIPVLVPGIIFSLNDKSSSSNLKIDALSCLYVILCNHSPQVFHPHVQALVPPVVACVGDPFYKITSEALLVTQQLVKVIRPLDQPSSFDATPYIKDLFTCTIKRLKAADIDQEVKERAISCMGQIICNLGDNLGSDLPNTLQIFLERLKNEITRLTTVKALTLIAGSPLKIDLRPVLGEGVPILASFLRKNQRALKLGTLSALDILIKNYSDSLTAAMIDAVLDELPPLISESDMHVSQMAISFLTTLAKVYPSSLSKISGSILNELIGLVRSPLLQGGALSAMLDFFQALVVTGTNNLGYMDLLRMLTGPVYSQSTALTHKQSYYSIAKCVAALTRACPKEGPAVVGQFIQDVKNSRSTDSIRLLALLSLGEVGHHIDLSGQLELKSVILEAFSSPSEEVKSAASYALGSISVGNLPEYLPFVLQEITSQPKRQYLLLHSLKEIISSASVVGLKPYVENIWALLLKHCECAEEGTRNVVAECLGKLTLIDPETLLPRLKGYLISGSSYARSSVVTAVKFTISDHPQPIDPLLKNCIGDFLKTLEDPDLNVRRVALVTFNSAAHNKPSLIRDLLDTVLPHLYNETKVRKELIREVEMGPFKHTVDDGLDIRKAAFECMYTLLDSCLDRLDIFEFLNHVEDGLKDHYDIKMLTFLMLVRLSTLCPSAVLQRLDRLVEPLRATCTTKVKANSVKQEFEKQDELKRSAMRAVAALLTIPEAEKSPLMSEFQSQISSNPELAAIFESIQKDSSSTNLESMDTS
# B5: RBM26_HUMAN (protein, UniProt Q5T8P6 1-1007, looked up)
# RNA-binding protein 26: MVSKMIIENFEALKSWLSKTLEPICDADPSALAKYVLALVKKDKSEKELKALCIDQLDVFLQKETQIFVEKLFDAVNTKSYLPPPEQPSSGSLKVEFFPHQEKDIKKEEITKEEEREKKFSRRLNHSPPQSSSRYRENRSRDERKKDDRSRKRDYDRNPPRRDSYRDRYNRRRGRSRSYSRSRSRSWSKERLRERDRDRSRTRSRSRTRSRERDLVKPKYDLDRTDPLENNYTPVSSVPSISSGHYPVPTLSSTITVIAPTHHGNNTTESWSEFHEDQVDHNSYVRPPMPKKRCRDYDEKGFCMRGDMCPFDHGSDPVVVEDVNLPGMLPFPAQPPVVEGPPPPGLPPPPPILTPPPVNLRPPVPPPGPLPPSLPPVTGPPPPLPPLQPSGMDAPPNSATSSVPTVVTTGIHHQPPPAPPSLFTADTYDTDGYNPEAPSITNTSRPMYRHRVHAQRPNLIGLTSGDMDLPPREKPPNKSSMRIVVDSESRKRTIGSGEPGVPTKKTWFDKPNFNRTNSPGFQKKVQFGNENTKLELRKVPPELNNISKLNEHFSRFGTLVNLQVAYNGDPEGALIQFATYEEAKKAISSTEAVLNNRFIKVYWHREGSTQQLQTTSPKVMQPLVQQPILPVVKQSVKERLGPVPSSTIEPAEAQSASSDLPQNVTKLSVKDRLGFVSKPSVSATEKVLSTSTGLTKTVYNPAALKAAQKTLLVSTSAVDNNEAQKKKQEALKLQQDVRKRKQEILEKHIETQKMLISKLEKNKTMKSEDKAEIMKTLEVLTKNITKLKDEVKAASPGRCLPKSIKTKTQMQKELLDTELDLYKKMQAGEEVTELRRKYTELQLEAAKRGILSSGRGRGIHSRGRGAVHGRGRGRGRGRGVPGHAVVDHRPRALEISAFTESDREDLLPHFAQYGEIEDCQIDDSSLHAVITFKTRAEAEAAAVHGARFKGQDLKLAWNKPVTNISAVETEEVEPDEEEFQEESLVDDSLLQDDDEEEEDNESRSWRR
# Test system: KDM4A-I71AzF
# Experiment: CASI: photo-crosslinking with HEK293T cell extracts, StrepTactin enrichment and LC-MS/MS proteomics;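 further: lysates from HEK293T cells pretreated with a KDM4 inhibitor to raise proteome methylation, affinity-purified after ±UV, gel-resolved, trypsin-digested, with exclusive unique peptides per protein averaged per condition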
# Assay type: binding, human
# Conditions: sheet "Final results but with 0.01"
molecule,measurement,value
B1,Fold change (+UV/-UV),1.333
B2,Fold change (+UV/-UV),2
B3,Fold change (+UV/-UV),0.7381
B4,Fold change (+UV/-UV),0.3333
B5,Fold change (+UV/-UV),0.3333
